Entries after “also recorded” stand apart in the source; their conditions may differ.
Key:
[1] = test system: Candida albicans strain SC5314; assay: Mouse model of disseminated Candidiasis, Study 1; type: in vivo; details: caspofungin 1 mg/kg at 24 h post-infection; p=0.004
Description: In study 1, the protective effect of mAb 1B11 as a prophylactic agent with single dosing before and after the administration of fungal inoculum was investigated. Female BALB/c mice, 7-9 weeks old were purchased from Envigo Ltd. and randomly assigned to groups of 6 for treatment and control. The Candida albicans inoculum was prepared by growing strain SC5314 in NGY medium for 16 h, shaking at 30° C. Cells were harvested and washed with saline, then counted and resuspended in saline to provide an inoculum of approx. 2×10^4 CFU/g mouse body weight in 100 μl. Mice were infected intravenously.
Actual inoculum level was determined by plating dilutions of the inoculum on Sabouraud dextrose agar and incubating overnight at 30° C. It was determined to be 2.2×10^4 CFU/g mouse body weight.
Animals were allocated into four main groups as explained below. The treatment dose of 1B11 mAb was 15 mg/kg per mouse. All treatments were administered intraperitoneally (IP) in 150 μl saline. […]
Mice were monitored and weighed every day and were culled on day 4 post-infection and the kidneys removed aseptically. […] Burdens were determined by plating out kidney homogenate and counting colonies after 48 h growth at 30° C. […]

[2] = test system: Candida albicans strain SC5314; assay: Mouse model of disseminated Candidiasis, Study 3; type: in vivo; details: 1 mg/kg at 24 h and 72 h post-infection; day 7
Description: In study 3, the protective effect of mAb 1B11 as a prophylactic agent with single dosing 3 hours before infection followed by two dosing 24 h and 72 h post infection was investigated.
In addition, a treatment only arm with the administration of 1B11 mAb 24 h and 72 h post infection was also included.
Animals were allocated into four main groups as explained below. The treatment dose of 1B11 mAb was 12.5 mg/kg per mouse. All treatments were administered intraperitoneally (IP) in 200 μl saline.
The study plan is shown in FIG. 19 and is as follows: • Group 1—Pre-treatment with 1B11 mAb at 3 h before infection, followed by treatment at 24 h and 72 h post-infection. • Group 2—Injected with saline at 3 h before infection, treatment with 1B11 at 24 h and 72 h post-infection. • Group 3—Saline injections at all three time points • Group 4—caspofungin treatment (1 mg/kg) at 24 h and 72 h post-infection
Mice were monitored and weighed every day and were culled on day 7 post-infection and the kidneys removed aseptically. Kidneys were split […], with one half of each kidney used to determine burdens, one half frozen on OCT and one half fixed in formalin at 4° C. Burdens were determined by plating out kidney homogenate and counting colonies after 48 h growth at 30° C. Statistical comparisons were carried out using IBM SPSS version 24. […]

C. albicans (SC5314) = assay: Galleria mellonella infection model, C. albicans; type: in vivo, Candida albicans; details: for survival of larvae: Galleria mellonella infected with 5×10^5 C. albicans, monitored 60 h, Mantel-Cox p<0.0001
Description: (§1) Galleria mellonella is a reliable infection model to test and compare antibody efficacy by monitoring the survival of the larvae. Ten Galleria mellonella larvae (Livefoods Direct Ltd, Sheffield, UK) with bodyweights of =250-300 mg were used for each test group and standardised inoculum of 5×10^5 C. albicans and 5×10^7 C. auris yeast cells/larvae were injected using Hamilton syringe (Cole-Parmer, UK, washed twice with 100% ethanol and sterile dH2O between every 5 injections) via the last pro-leg. Two control groups, one with no injection and the second with PBS injection were also set up. After injection, larvae were incubated for 48-60 h at 37° C. Survival was monitored first after 24 h and then every 6 h. A Kaplan-Meier plot was generated to assess the survival of larvae infected with C. albicans and C. auris, monitoring the survival rate for 60 h (FIG. 8).
(§2) In addition, the fungal burden of various test groups was calculated by measuring the number of colony forming units (CFU) as an indicator of fungal growth within the larvae and early fungicidal/fungistatic activity of the antibody. […] (FIG. 9A).

[3] = test system: cell lysates of pga314 mutant strain; assay: Pga31 scAbs binding ELISA on cell lysates of pga31 mutant strain; parameters: species or system Candida albicans; details: with or without 0.032 μg/ml caspofungin
Description: (§3) The reaction was stopped using 1 M H2SO4 and the absorbance values measured using a microplate reader at absorbance 450 nm. For total cell lysate ELISA, C. albicans WT and pga31 single mutant strain overnight cultures were inoculated into fresh YPD at OD600 nm of 0.1-0.2, grown for 3-4 h at 30° C. until OD of 0.5-0.6 was reached and then treated with caspofungin (0.032 μg/ml) for 90 min. After 90 min growth cells were harvested, centrifuged for 5 min at 4000 rpm and washed and cell lysate was prepared. This was used to coat ELISA plates at 37° C. for 1 h, plates were washed and blocked with 2% MPBS as before, followed by the two-fold serial dilution of scAb samples.

C. auris (1716) [4] = assay: Biofilm formation assay (crystal violet), C. auris; type: cell-based, Candida auris
Description: (§4) The ability of 1B11 scAb in preventing the formation of biofilm in C. albicans ([…]) and C. auris (1716) was tested. The growth medium used were RPMI and 20% Foetal Calf Serum (FCS) and the assay was carried out in 96 well microtitre plates. Test antibody 1B11 scAb at a starting concentration of 160 μg/ml was double diluted down the plate and the top row served as positive control with cells only. The final number of cells added to each well was kept constant at 1×10^5/ml and the plate was incubated at 37° C. for 24 h. Following incubation, the biofilm plate was gently washed two times with PBS to remove non-adhering cells and allowed to dry at room temperature overnight. The biofilm was stained with 100 μl 0.05% crystal violet for 20 min followed by washing with Millipore Q water and 200 ul of 100% ethanol. Contents of each well were transferred to a new plate and absorbance was read at 570 nm wavelength.

C. albicans (SC3514) = assay: Biofilm formation assay (crystal violet), C. albicans; type: cell-based, Candida albicans
Description: as §4

C. auris (1716) [5] = assay: Galleria mellonella infection model, C. auris; type: in vivo, Candida auris; details: for survival of larvae: Galleria mellonella infected with 5×10^7 C. auris, monitored 60 h, versus non-treated, Mantel-Cox p<0.0001
Description: as §1, §2

[6] = test system: total cell lysates of WT C. albicans (SC5314); assay: Pga31 scAbs binding ELISA on total cell lysates of WT C. albicans treated with or without caspofungin; parameters: species or system Candida albicans; details: absorbance 450 nm, cells treated or untreated with 0.032 μg/ml caspofungin
Description: as §3

[7] = at higher concentrations (start 160 μg/ml, double diluted), 24 h incubation

For `CC[C@H](C)C[C@H](C)CCCCCCCCC(=O)N[C@H]1C[C@@H](O)[C@@H](NCCN)NC(=O)[C@@H]2[C@@H](O)CCN2C(=O)[C@H]([C@H](O)CCN)NC(=O)[C@H]([C@H](O)[C@@H](O)c2ccc(O)cc2)NC(=O)[C@@H]2C[C@@H](O)CN2C(=O)[C@H]([C@@H](C)O)NC1=O` [caspofungin, reference compound], the “kidney organ burdens compared to saline treated mice” value [1] was “significant decrease”, the “kidney burdens, caspofungin group compared to saline treated group” value [2] was “highly significant difference” and the survival of larvae (C. albicans (SC5314)) was “significant survival percentage; also recorded: only had marginal effect”.

B1: 1B11 scAb: anti-Pga31 single chain antibody from naive human library; amino acid sequence SEQ ID NO: 2 (protein)
scFv: EVQLLESGGGVVQPGRSLRLSCAASGFTFSSYGMHWVRQAPGKGLEWVAVISYDGSNKYYADSVKGRFTISRDNSKNTLYLQMNSLRAEDTAVYYCARDRSGWGSLDYWGQGTLVTVSSLEGGGGSGGGGSGGGASDIVMTQSPDSLAVSLGERATINCKSSQNVLYSSNNKNYLAWYQQKSGQPPKLLIYWASTRESGVPDRFSGSGSGTDFTLTISSLQAEDVAVYYCQQYYSTPRTFGQGTKVEIK
modifications: 1B11 Amino Acid Sequence
In the case of B1, the “scAb binding to mutant strain lysate” value [3] is reported as “lack of scAb binding”, the “C. auris growth under biofilm-inducing conditions” value (C. auris (1716) [4]; 24 h, RPMI or 20% FCS) is reported as “did not significantly inhibit C. auris growth under biofilm-inducing conditions except at the highest concentration tested” and the biofilm formation (C. auris (1716) [4]; [7]) is reported as “able to inhibit biofilm formation”. The “biofilm biomass (crystal violet) compared to the control” value (C. auris (1716) [4]; both RPMI and 20% FCS conditions, T-test, p<0.0001, p<0.0004) was “significantly different”, the “C. albicans growth under biofilm-inducing conditions” value (C. albicans (SC3514); 24 h, especially in 20% foetal calf serum) was “significantly inhibited” and the “biofilm biomass (crystal violet) compared to the control” value (C. albicans (SC3514); RPMI conditions, T test, p<0.0001) was “significantly different”. For the same molecule, the biofilm formation (C. albicans (SC3514); [7]) was “able to inhibit biofilm formation”, the “fungal burden (colony forming units) in larvae” value (C. auris (1716) [5]; 4 h and 24 h incubation, versus non-treatment group) was “inhibited; also recorded: notable inhibition of growth” and the survival of larvae (C. auris (1716) [5]) was “significant survival percentage”. The survival of larvae (C. auris (1716) [5]; listed as anti-Pga31 antibody) was “survived significantly more”, the “scAb binding to lysates of caspofungin treated versus untreated cells” value [6] was “increase in scAb binding” and the survival of larvae (C. albicans (SC5314)) was “significant survival percentage”. The “fungal burden (colony forming units) in larvae” value (C. albicans (SC5314); versus non-treatment group, statistically significant in 24 h group) was “lower level of growth inhibition”.

Reference: patent US20250074972A1, “ANTIBODIES AND METHODS FOR GENERATING THE SAME” (priority 2021, published 2025)
